Experimental data: article PMC5811392

T1: p23 (Homo sapiens, UniProt Q15185 1-160)
T1 sequence: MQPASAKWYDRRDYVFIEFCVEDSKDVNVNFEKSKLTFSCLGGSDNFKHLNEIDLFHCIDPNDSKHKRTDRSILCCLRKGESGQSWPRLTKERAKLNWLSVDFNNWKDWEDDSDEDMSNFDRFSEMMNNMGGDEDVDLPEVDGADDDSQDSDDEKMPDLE

B1: p21 20-mer DNA, Cy5 (dsDNA)
DNA 1: GAACATGTTCGAACATGTTC
DNA 2: GAACATGTTCGAACATGTTC
B2: p21 20-mer DNA, unlabeled (dsDNA)
DNA 1: GAACATGTTCGAACATGTTC
DNA 2: GAACATGTTCGAACATGTTC

Key:
[1] = target: p53 DBD (Homo sapiens, UniProt P04637 88-312); experiment: fluorescence anisotropy
[2] = target: T1, p23; experiment: NMR DOSY

Chain of p53 DBD (P04637 88-312): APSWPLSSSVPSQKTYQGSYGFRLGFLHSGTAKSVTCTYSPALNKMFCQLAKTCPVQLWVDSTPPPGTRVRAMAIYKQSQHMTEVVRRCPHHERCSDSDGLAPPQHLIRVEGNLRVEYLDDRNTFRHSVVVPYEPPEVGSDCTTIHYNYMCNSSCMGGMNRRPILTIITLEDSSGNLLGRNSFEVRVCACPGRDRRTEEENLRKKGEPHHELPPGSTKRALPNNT

Binder	Kd [1] [nM]	binding result [2]
B1	45 ± 7	–
B2	–	no binding
